In patent US20240294651A1 (KYMAB, published 2024):
Residue numbers refer to the chain shown, from its start.

B1: CL-82577 (antibody, human IgG4 S228P, kappa, V domains shown)
VH: QVQLQESGPGLVKPSQTLSLTCTVSGGSISSGGYYWTWIRQLPGKGLEWIGYMSYSGNTFYSPSLKSRFTISGDTSENQFSLKVNSVTSADTAIYYCARDRRIPMLRGIKGYYYGMDVWGQGTTVTVSS
VL: not shown
notes: Tested in human IgG4-PE format
B2: CL-82541 (antibody, human IgG4 S228P, kappa, V domains shown)
VH: QVQLQESGPGLVKPSQTLSLTCTVSGGSISSGRYYWSWIRQLPGKGLEWIGYISYSGNPFYSPSLKSRVTISVDTSENQFSLKLSSVTAADTAVYYCARDRRIPMLRGVKGYYYGMDVWGQGTTVTVSS
VL: not shown
notes: as for B1
B3: CL-82583 (antibody, human IgG4 S228P, kappa)
heavy: not shown
light: DIQMTQSPSSLSASVGDRVTITCRASQGVRDDLGWYQQKPGKAPKRLIYAASSLQSGVPSRFSGSGSGTEFTLTISSLQPEDFATYYCLQHNSYPFTFGPGTKVDIKRTVAAPSVFIFPPSDEQLKSGTASVVCLLNNFYPREAKVQWKVDNALQSGNSQESVTEQDSKDSTYSLSSTLTLSKADYEKHKVYACEVTHQGLSSPVTKSFNRGEC
notes: as for B1
B4: CL-82556 (antibody, human IgG4 S228P, kappa, V domains shown)
VH: QVQLVESGGGVVQPGRSLRLSCAASGFTFYSYGMHWVRQAPGKGLEWVAVIWYGGTNKYYADSVKGRFTISRDNSKNTLYLQMNSLTAEDTAVYYCARGQLERRRGGLNIWGQGTMVTVSS
VL: DIQMTQSPSSLSASVGDRVTITCRASQGVRDDLGWYQQKPGKAPKRLIYAASNLQSGVPSRFSGSGSGTEFTLTIGSLQPEDFATYYCLQHNSYPFTFGPGTKVDIKR
notes: as for B1
B5: CL-82495 (antibody, human IgG4 S228P, kappa, V domains shown)
VH: QVQLVESGGGVVQPGRSLRLSCEASGFTLSSYGMHWVRQAPGKGLEWVAVIWNDGSNKYSADSVKGRFTISRDNSKNTLYLQMNRLRAEDTAVYYCARGGGYYGSGSHYRGYYYYGMDVWGQGTTVTVSS
VL: B4 VL with V29I, D31N, N53S, G76S, F96W, P100Q, D105E
notes: as for B1
B6: CL-82523 (antibody, human IgG4 S228P, kappa, V domains shown)
VH: EVQLVESGGGLVQPGGSLRLSCAASGFTFSNYAMSWVRQAPRKGLEWVSVISGSGGRTNYAGSVKGRFSITRDNSKNTLYLQMNSLRAEDTAVYYCVKGQLERRYYYYYGMDVWGQGITVTVSS
VL: B4 VL with V29I, D31N, N53S, G76S, F96L, P100G, D105E
notes: as for B1
B7: CL-82562 (antibody, human IgG4 S228P, kappa, V domains shown)
VH: QVQLVESGGGVVQPGRSLRLSCTASGFTFSNYAMHWVRQAPGKGLEWVAVISYDGSNKYCADSVKGRFTISRDNSKNTLYLQMNSLRAEDTAVYYCARGPLARRHYYYYGMDVWGQGTTVTVSS
VL: B4 VL with V29I, D31N, A50G, N53S, G76S, F96R, P100Q, D105E
notes: as for B1
B8: CL-82580 (antibody, human IgG4 S228P, kappa, V domains shown)
VH: QVQLVQSGAEVKKPGASVKVSCRASGYTFTNYDINWVRQATGQGLEWMGWMNPNSGNTGYAQKFQGRVTMTRNTSISAAYMELSSLRSEDTAVYYCARGRGYYGSGSRYRGYYYYGMDVWGQGTTVTVSS
VL: not shown
notes: as for B1
B9: CL-82551 (antibody, human IgG4 S228P, kappa, V domains shown)
VH: B8 VH with R23K, N31S, A78T, R108H, M117L
VL: DIQMTQSPSTLSASVGDRVTITCRASQSISSWLAWYQQKPGKAPKVLIYKASSLKSGVPSRFSGSGSGTEFTLTVSSLQPDDFATYYCQQYNSYSWTFGQGTKVEIKR
notes: as for B1
B10: CL-82455 (antibody, human IgG4 S228P, kappa, V domains shown)
VH: QVQLVESGGGVVQPGRSLRLSCAASGFTFNNYGMHWVRQAPGKGLEWVAVIWNDGSNKYYGDSVKGRFTISRDNSKNTLYLQMNSLRAEDTAVYYCARGGGYYGSGKHYRGYYYNGMGVWGQGTPVTVSS
VL: EIVMTQSPATLSVSPGERATLSCRASQSVSSNLAWYQQKPGQAPRLLIYGASTRATGIPARFSGSGSGTEVTLTISSLQSEDFTIYYCQQYNNWPWTFGQGTKVDIKR
B11: CL-148712 (antibody, human IgG4 S228P, kappa, V domains shown)
VH: EVQLVESGGDLVQPGGSLRLSCAASGFTFYSYAMNWVRQAPGKGLKWVSGISGSGDITYYADSVKGRFTISRDNSKNTLYLQMHSLRAEDTAVYYCAKGQLERRYYKYYGMDVWGQGTTVTVSS
VL: DIQMTQSPSSLSASVGDRVTITCRANQGIRNDLGWYQQKPGKAPKRLIYGASSLKSGVPSRFSGSGSGTEFTLTISSLQPEDFATYYCLQQNSYPLTFGGGTKVEIKR

Molecular target: T1, terbium-labelled SNAP-CXCR4 on HEK-293 cells (Cisbio C1TT1CXCR4) (human, UniProt P61072 1-352 (Pan troglodytes entry), terbium label on the SNAP tag)
T1 construct: Bought assay-ready cells; also called CXCR4 expressing cells; not shown: SNAP tag
Test: TR-FRET (Tag-lite) competition with AlexaFluor 647-CXCL12 on terbium-labelled SNAP-CXCR4 HEK-293 cells

| Binder | % Max Inhibition [%] | IC50 [nM] |
| --- | --- | --- |
| B1 | 98 | 0.92 |
| B2 | 97 | 1.16 |
| B3 | 98 | 0.72 |
| B4 | 99 | 0.7 |
| B5 | 100 | 1.71 |
| B6 | 101 | 0.55 |
| B7 | 100 | 0.86 |
| B8 | 97 | 1.41 |
| B9 | 98 | 1.21 |

Molecular target: T2, human CXCR4 (cell-expressed) (human, UniProt P61073 1-352)
Test: cell-based or functional assay

| Binder | % Max Inhibition, cAMP HTRF assay, CXCR4 BacMam HEK-293 cells [%] | IC50, cAMP HTRF assay, CXCR4 BacMam HEK-293 cells, 5.5 nM CXCL12 [nM] |
| --- | --- | --- |
| B1 | 92 | 29 |
| B10 | 103 | 91 |
| B2 | 87 | 74 |
| B3 | 91 | 28 |
| B4 | 94 | 17 |
| B5 | 96 | 27 |
| B6 | 87 | 24 |
| B7 | 92 | 99 |
| B11 | 105 | 19 |
| B8 | 90 | 46 |
| B9 | 92 | 39 |

Molecular target: T2, human CXCR4 (cell-expressed)
Test: cell-based or functional assay
Remark: another data set of the same source

| Binder | % Max Inhibition, beta-arrestin reporter assay, Tango CXCR4-bla U2OS cells [%] | IC50, beta-arrestin reporter assay, Tango CXCR4-bla U2OS cells, 30 nM CXCL12 [nM] |
| --- | --- | --- |
| B1 | 102 | 0.24 |
| B10 | 86.8 | 9.12 |
| B2 | 97.2 | 0.38 |
| B3 | 94 | 0.17 |
| B4 | 101 | 0.14 |
| B5 | 98.9 | 2.08 |
| B6 | 101 | 0.08 |
| B7 | 101 | 0.52 |
| B11 | 98.4 | 0.19 |
| B8 | 100 | 1.15 |
| B9 | 98.2 | 1.56 |
